According to patent publication US7772001B2, “Directed differentiation of embryonic stem cells into an endoderm cell” (Yissum Research Development Company Of the Hebrew …, priority 2000, dated 2010):
“Also recorded” adds a separate entry of the source.

What was measured:
[1] = system: human differentiated embryonic (DE) cells; test: RT-PCR of cell specific genes in DE cells treated with growth factors; format: cell-based; details: for overall induction or repression of cell specific expression (FIG. 3B): at least three experiments
Description: (§1) Cell Culture: Human embryonic stem cells were grown on a feeder layer of mouse embryonic fibroblasts (MEF) and then transferred to gelatin coated plates and cultured further to reduce the number of murine cells in the culture. Differentiation into embryoid bodies (EBs) was initiated by transfer to Petri dishes, where the embryoid bodies remained in suspension. After 5 days, the EBs become dissociated and cells are cultured as a monolayer forming differentiated embryonic (DE) cells. This protocol allows for initial differentiation of the human embryonic stem cells as aggregates and further differentiation as a monolayer wherein cells can be exposed to exogenous growth factors. The DE cells were cultured for 10 days in the presence of 8 different growth factors: NGF, bFGF, Activin-A, TGFβ1, HGF, EGF, BMP4 and retinoic acid (RA) (FIG. 1A).
To induce formation of EBs, ES cells were transferred using trypsin/EDTA (0.1%/l mM) to plastic Petri dishes to allow their aggregation and prevent adherence to the plate. Human EBs were grown in the same culture medium, except that it lacked leukemia inhibitory factor (LIF) and bFGF. The EBs were cultured for 5 days and then dissociated and plated on tissue culture plates coated with 50 μg/ml Fibronectin (Boehringer Mannheim). The cells were grown in the presence of the following human recombinant growth factors used singly or in groups: Basic Fibroblast Growth Factor (bFGF) (Swoboda et al, 1999)—10 ng/ml (Gibco BRL); Transforming Growth Factor Beta 1 (TGFβ1) (Swoboda et al, 1999)—2 ng/ml (R&D Systems); Activin-A (Slager et al, 1993)—20 ng/ml (R&D Systems); Bone Morphogenic Protein 4 (BMP-4) (Slager et al, 1993; Bain et al, 1996)—10 ng/ml (R&D Systems); Hepatocyte Growth Factor (HGF)/Scatter Factor (Doetsch et al, 1999)—20 ng/ml (R&D Systems); Epidermal Growth Factor (EGF) (Doetsch et al, 1999)—100 ng/ml (R&D Systems); βNerve Growth Factor (NGF) (Johansson et al, 1999)—100 ng/ml (R&D Systems); Retinoic acid (RA) (Deacon et al, 1998; Peschanski et al, 1995)—1 μM (Sigma). Under these conditions the differentiated embryonic (DE) cells were grown for another 10 days. All of the examined growth factors are absent from the KnockOut™ serum replacement in which the embryonic cells were cultured.
RT-PCR Analysis: Total RNA was extracted using Atlas™ Pure Total RNA Kit (Clontech). cDNA was synthesized from 1 μg total RNA, using Atlas™ RT-for-PCR Kit (Clontech). cDNA samples were subjected to PCR amplification with DNA primers selective for the human genes. For each gene, the DNA primers were derived from different exons to ensure that the PCR product represents the specific mRNA species and not genomic DNA. PCR was performed using the Clontech Advantaq+™ RT-PCR kit and using a two-step cycle at 68° C.
Primers were synthesized for the following genes: neurofilament heavy chain (NF-H), phosphoprotein enriched in astrocytes (PEA-15), Keratin, Dopamine β Hydroxylase (DβH), Follicular Stimulating Hormone (FSH), Enolase, Myosin light polypeptide2 (myosin), Cartilage Matrix Protein (CMP), Renin, Kallikrein, Wilms Tumor 1 (WTI), β-Globin (β-Glob), δ-Globin (δ-Glob), Cardiac Actin (cACT), Albumin, α1 anti-trypsin (α1 AT), Lipase, Amylase, PDX-1, Insulin, Glucagon, Surfactant, Parathyroid Hormone (PTH), α-feto protein (αFP), Retinoic Acid Receptor type alpha (RAR), Hepatocyte Growth Factor Receptor (c-Met), Nerve Growth Factor Receptor (NGFR), Fibroblast Growth Factor Receptor type I (FGFRI), Transforming Growth Factor Receptor type II (TGFRII), Epidermal Growth Factor Receptor type (EGFR), Activin Receptor type IIB (ACTRIIB), Bone Morphogenic Protein 4 Receptor type II (BMP4RII), Octamer Binding Protein 4 (Oct 4), Glyceraldehyde 3-phosphate dehydrogenase (G3PD), β-Actin. Also incorporated by reference, see http://www.ls.huji.ac.il/˜nissimb/factors_es/primers.html-ente.
The differentiation induced by growth factors was further examined by determining the expression of a panel of 24 cell specific genes using RT-PCR. […]

[2] = system: human differentiated embryonic (DE) cells; test: Morphology of DE cells cultured with growth factors; format: cell-based; details: several days on plastic, continuous exposure to growth factor (FIG. 1B)
Description: as §1
To induce formation of EBs, ES cells were transferred using trypsin/EDTA (0.1%/l mM) to plastic Petri dishes to allow their aggregation and prevent adherence to the plate. Human EBs were grown in the same culture medium, except that it lacked leukemia inhibitory factor (LIF) and bFGF. The EBs were cultured for 5 days and then dissociated and plated on tissue culture plates coated with 50 μg/ml Fibronectin (Boehringer Mannheim). […]

[3] = vs control without growth factor (FIG. 4)

B1: Activin-A: human recombinant Activin-A, 20 ng/ml (protein, UniProt P08476 311-426, looked up)
Inhibin beta A chain: GLECDGKVNICCKKQFFVSFKDIGWNDWIIAPSGYHANYCEGECPSHIAGTSGSSLSFHSTVINHYRMRGHSPFANLKSCCVPTKLRPMSMLYYDDGQNIIKKDIQNMIVEECGCS
overall induction or repression of cell specific expression (FIG. 3B) [1]: mostly repress or fail to direct differentiation of as many cell types | blood formation [1, 3]: inhibit | differentiation into Mullerian duct cells [1, 3]: inhibit | differentiation into chondrocytes [1, 3]: inhibit | differentiation into ectodermal cells [1, 3]: inhibit | differentiation into endodermal cells [1, 3]: inhibit | differentiation into kidney cells [1, 3]: inhibit | differentiation into mesodermal cells [1, 3]: allow differentiation into selected mesodermal cells | cell morphology found in treated culture [2]: muscle like syncytiums

B2: BMP-4: human recombinant Bone Morphogenic Protein 4, 10 ng/ml (protein, UniProt P12644 293-408, looked up)
Bone morphogenetic protein 4: SPKHHSQRARKKNKNCRRHSLYVDFSDVGWNDWIVAPPGYQAFYCHGDCPFPLADHLNSTNHAIVQTLVNSVNSSIPKACCVPTELSAISMLYLDEYDKVVLKNYQEMVVEGCGCR
overall induction or repression of cell specific expression (FIG. 3B) [1]: mostly repress or fail to direct differentiation of as many cell types | blood formation [1, 3]: reduced | differentiation into chondrocytes [1, 3]: reduced | differentiation into ectodermal cells [1, 3]: allow or induce | differentiation into mesodermal cells [1, 3]: allow or induce; also recorded: inhibits differentiation of all other mesodermal cells examined | differentiation into skin cells [1, 3]: apparently permitting skin cells to form | cell morphology found in treated culture [2]: large round cells
